assay: soluble on expression in E. coli; label from the status in PepcDB or PDB records

| Sequence | soluble on expression in E. coli |
| --- | --- |
| MGSDKIHHHHHHMVPMTRFDSATEVVRVGENRYAVELDPGYLIGTAMNGGYLMTVLQRSALAESDHLHAVSSSYHFHRPASSGPAEIETRVLKRGRTVTTVQTTLFQEGRTILTGTLATATLDPHAEPRYAAPQPAIPPQHQCRRVDPRQSHLPDDGFLARVDVDFSPDSYAALARERTVTTPELCGYVDLSARDGGSAKDPLAFLPLAVDALPPIVSLLVDWSWAPTVELTWHLRAIPEPGPLAFRSTCALVSDGWFDENVDLWDARGRLVAQSRQLARVGR | not soluble |
| RIDNRNDEILRITGNPYHPLSHQQHIPFETPVKDAYLSLAGEAGLDGRSTACARGNGMLEIRNSPYRITQPLKRVGKRGEGKWIPISYEQLIEEVVEGGDLFGEGHVDGLRDIRDLTTPVDPENPEYGPKANQLLMTNAGNEGRDDIFKRFAFNSYGTRNFGHHGSYCGYAFRAGSGAFMNDLDKNAHLKPDFDNAEYIIFIGMSPAQAGNPFKRQARQLANARTEGSLE | not soluble |
| MSLGIKVNRLKVEDQILRQFGGNLLLEKDGNRGFIAFIGRGLIDFTERIRILATVSRIKDILFIGTAGSLSNEILIGDLNIPKYAIPFENVSDFYADPTIAIPQADEKLLNEVYEYAEETGVKTHSTLHATLLFPYSETTEFLNYLLNIGVSTIDMEVSAFYKMSRFYGKRAVAVLRISDMPLIELHKQEELIKARREIAVNAVFRITLRFLKLEGHHHHHH | not soluble |
| MTENNRLSVKLPGLDLKNPIIPASGCFGFGEEYAKYYDLNKLGSIMVKATTLHPRFGNPTPRVAETASGMLNAIGLQNPGLEVIMTEKLPWLNENFPELPIIANVAGSEEADYVAVCAKIGDAANVKAIELNISCPNVKHGGQAFGTDPEVAAALVKACKAVSKVPLYVKLSPNVTDIVPIAKAVEAAGADGLTMINTLMGVRFDLKTRQPILANITGGLSGPAIKPVALKLIHQVAQDVDIPIIGMGGVANAQDVLEMYMAGASAVAVGTANFADPFVCPKIIDKLPELMDQYRIESLESLIQEVKEGKK | soluble |
| MGSSHHHHHHSSGLVPRGSHMASMDGKQGGMDGSKPAGPRDFPGIRLLSNPLMGDAVSDWSPMHEAAIHGHQLSLRNLISQGWAVNIITADHVSPLHEACLGGHLSCVKILLKHGAQVNGVTADWHTPLFNACVSGSWDCVNLLLQHGASVQPESDLASPIHEAARRGHVECVNSLIAYGGNIDHKISHLGTPLYLACENQQRACVKKLLESGADVNQGKGQDSPLHAVVRTASEELACLLMDFGADTQAKNAEGKRPVELVPPESPLAQLFLEREGASLPKPKP | soluble |
| MSGFDLIIFDCDGVLVDSEIIAAQVESRLLTEAGYPISVEEMGERFAGMTWKNILLQVESEASIPLSASLLDKSEKLLDMRLERDVKIIDGVKFALSRLTTPRCICSNSSSHRLDMMLTKVGLKPYFAPHIYSAKDLGADRVKPKPDIFLHGAAQFGVSPDRVVVVEDSVHGIHGARAAGMRVIGFTGASHTYPSHADRLTDAGAETVISRMQDLPAVIAAMAEWEGAF | soluble |
| MPRHRISGINWLAHYNELIRFWTRKTGSRGDVEDATHDVITKLLESNVSTISSPRSYLHSSIRNRLTDSYRQNKILDLVPIHDLPEDSHPLQPNDPVTHTCTMQLLTALKEALQELPLKCRQVFIWHRLEGYSQTEIAEKLDISVNMVEKYMIRATRHLRDRLQDHIPD | not soluble |
| KSDSENIKDVKLQLNYAYEIIPVDYTNCNIDYLTTHDFYIDISSYKKKNFSVDSEVESYITTKFTKNQKVNIFGLPYIFTRYDVYYIYGGVTPSVNSNSENSKIVGNLLIDGVQQKTLINPIKIDKPIFTIQEFDFKIRQYLMQTYKIYDPNSPYIKGQLEIAINGNKHESFNLYDATSSSTRSDIFKKYKDNKTINMKDFSHFDIYLWTK | soluble |
| MEYLNVAEIKALLNSTISKLNPRYTSNYMIVTAILTGARLSEIAGLTWNDINFNFNTININKSYDYFAKSFKPTKNKSSNRIIKINNTLCDVLKELRTNNTDLVFKNKRGLIPTSNAVNKALRARLEELNINRRNFHFHSLRHSHVAFLLSQGIDIYPIAQRLGHSDITTTTRTYAYLIEEYKDKNDAIIIAGLDKLEHHHHHH | soluble |
| MGHHHHHHSHMAERCFQQAIAFQASCAAVEACFQDLELMHRWLNPLLRCRPEGDWNLDRGSRNRFQIQIPLIYPSLECVVCDRAEGLIVWQFEGFFQGTDTWRWWQEGEHTQLDNCFRFRIAKPWVAWGFDRVAAGVTQRDMQAQLQRLKAIAETLPVASTVTDNLP | not soluble |
| MGHHHHHHSHMVISWHLASDMDCVVTLTTDAARRIYDETQGRQQVLPLDSIYKKTLPDWKRSLPHFRNGKLYFKPIGDPVFARDLLTFPDNVEHCETVFGMLLGDTIILDNLDAANHYRKEVVKITHCPTLLTRDGDRIRSNGKFGGLQNKAPPMDKLRGMVFGAPVPKQCLILGEQIDLLQQYRSAVCKLDSVNKDLNSQLEYLRTPDMRKKKQELDEHEKNLKLIEEKLGMTPIRKCNDSLRHSPKVETTDCPVPPKRMRREATRQNRIITKTDV | not soluble |
| MGSDKIHHHHHHAQSKSSVYKPWSHGQLKVSKENRYLMNADGTPFFWLGDTGWLLPEKLNRDEAAYYLEHCRQAGFNVVQVQTINGVPAMNFYGQYSMIDGFNFKNIDRKGVYGYWDHMDYIIQKAEQNGIYIAMVCIWGGLVRSGKMNVEEAKAYGRFLGERYKDAPNIIWVIGGDTYADRNTEIWEALANSILAVDENHIMTFHPFGRTSSATHLNNKEWMDMNMFQSGHRRYGQKKGDGDTSVTGLEEDNWRYVEEALSMTPLKPVLDAEPSYEGIPQGLHDPAQPRWRDCDVRRYGYWSVFAGSCGHTYGHNNIMQFLKPGTPGGYGADGIEKPWYKAMQDPGFNQMKYLKNLMLTFPYFERVPDQSVIAGTNGNRYDRAIATRGKDYLLVYNYSGNPMSVDLTKISGAKKKVWWYSPKDGKLSFIGEFDSKITPFTYDGSYNRDNDQVLIAIDSSKNYISTEWLELPMVNQ | not soluble |
| MRKEDKGTVIRQLAKYIGQYPHFYLTDIEALNAEKTSELRRNCNKNGVKLVMVKNTLLRAALAASDVDFSSLYSCLKGNTAVMFCEVANSPAKVIKQFTKDTKGEGKPWLKAAYVQESFYIGRENLDALVSIKSKNELIADVVALLQSPAKNVIASLQSAGQTIHGVLKTLEEK | not soluble |
| MEIIIVGGFLGSGKTTTLNHLITDALDHNLKTALIINEFGKMSVDSQLIHPTIPISEIVEGCICCAMKSNVSQQLHEIYLEHQPDLVFIECSGIAEPLAVVDACLTPVLAPITTIRSMLGIIDAKLYEKIETYPRDIQALFYEQLSYCSTLFVNKIDIADFNQVARLLRHLEVINRDANIQVGQWGELALNTLLNVKHLDAKQRGTLHHAINHQLIDTPRSQTKADFIERLTQLPQQVYRVKGFVRFTDSKLIHLVQYAEGEIELTPIQFKSDVPLYLVVIGKHLDAIELDLLEHHHHHH | not soluble |
| MKEIWYVRHGETEWNAQRRFQGHLDIPLSPVGIGQAFRLAERLSRSRISFDRLYASDLRRARQTAEPLAQVLGLPIATTPLLREIHVGELAGLTRAEAEARFPSFLAEAAEDPWNARRPGGESMADLARRLQAFLEEVPPGRHLVVTHGGVIRAALKLALDLAGDTWRRFHIQNTSITRILYPENAVLTVADAAHLEVWADWLSDEDLKG | soluble |
| MGSDKIHHHHHHMIRGLYIAVSAMITNQQKQNVVVNNLANMDTNGYKSKQLLTKSFDELKLEGYNNYANGTKQKQIIGDISPGISMDETITNFNQGPIKTTDNKMDVAIQGKGFFLVSDAAGNQFYTRNGNFRTDNQGDLITSEGYYVLGTNTATGAVGHINVGNQKFEVAKDNTISLDGNAMYKFNIVDFNNYNNLKKEGDNLYSGGGAMKVNNALTIQSAIESSNVDMVSEINNMMTISREYEANQKIIQAMDSKLAKIASEIGSVR | not soluble |
| MGSDKIHHHHHHMPTSALDGKDTAAIQAATAEVAVYDRSNWGLIRVSDDDRLRFLHNQSTNDFQSLKPGQGCETVMVTSTARTIDLVSSYVLNDAVILLVSSSRREFLLQWLDRYIFFADKVQLTDITDETATLSIIGPGSDAVVEKLGAGEIIGQPHGNHITIDGGVVAAVGSGLASPGYTLILPVSQKQQVWQQILDSGAVELSDRAWDTLRILQGRPAPDAELTDDYNPLEVGLWQTISFSKGCYIGQETIARLNTYKGVKQHLWGIRLNAPAEIGDSINIGDEKVGKLTSYTETPDGYFGLAYIRSKAGGVGLKVQVGNSEGEVVAIPFVSHEYP | not soluble |
| MKAMNKVWVIGDASVDLVPEKQNSYLKCPGGASANVGVCVARLGGECGFIGCLGDDDAGRFLRQVFQDNGVDVTFLRLDADLTSAVLIVNLTADGERSFTYLVHPGADTYVSPQDLPPFRQYEWFYFSSIGLTDRPAREACLEGARRMREAGGYVLFDVNLRSKMWGNTDEIPELIARSAALASICKVSADELCQLSGASHWQDARYYLRDLGCDTTIISLGADGALLITAEGEFHFPAPRVDVVDTTGAGDAFVGGLLFTLSRANCWDHALLAEAISNANACGAMAVTAKGAMTALPFPDQLNTFLSSHSLAQAMTVK | not soluble |
| MGHHHHHHSHMDDIFTQCREGNAVAVRLWLDNTENDLNQGDDHGFSPLHWACREGRSAVVEMLIMRGARINVMNRGDDTPLHLAASHGHRDIVQKLLQYKADINAVNEHGNVPLHYACFWGQDQVAEDLVANGALVSICNKYGEMPVDKAKAPLRELLRERAEK | not soluble |
| MTVDSIPLNTGAQLPLFGLGTWQVKDEAELTVALRAALDAGYRLIDTAHLYQNEHIIGKVLHEYISSGKLKREDIFVTSKLPFTAHAPEDVPKCVESQLKALQLEYIDLYLIHCPFPFKHQEGSFAPLMENGELAVTEIAHIDTWRALEKLYKEGKLKALGVSNFSCNQLQALYDAAEVKPANQQVECHIYWPQQELRALCKKLGVTVTAYAPLGSPGRKAARPDGVWPEGDPLLEPIVKQLAAKYHKTAAQILIRHLTQHGISTIPKSVSPDRIVENISTFDFKLSDEDMHTLNSIETRTRLFIADFAVKHPFFPHDDIDTSKVPKVGIRLH | soluble |
| MGSDKIHHHHHHMSLRKNLALGSSTVLLTAVLSGCVSLDERSTDTSTENVTTVTATLTSTAAAEPTTRTTVQSATEASTTAPVQCNLDPRTSDFGPYLAQSRTPVGELAGSADSVVQVPDWFYHFQMGDNGYDSCSKLSYVVLNGSNGDAERSTGTGAAIADVVVLFIDGHMVARPAPFEMKTVESVTRVSDSEIQVVYGHAGRSTAEGVTDYFTFNFFVDNGVLSGRGDLPEHIDTHMRLYLL | not soluble |
| MAESVEKLEDGIVRSAEQVSSQIRAAKDAIASVIFGQDRVIENTLVTILSGGHALLIGVPGLAKTKLVETLGVTLGLDAKRIQFTPDLMPSDILGAEVLDESTAGKRSFRFIAGPVFAQLLMADEINRASPRTQSALLQAMQEQHITVAGARHDLPKPFHVLATQNPLEQEGTYPLPEAQLDRFLMEIDVDYPDRDAERRILFETTGAEETLAKGSMTADALITAQRLIRRLPVGDSVVEAILSLVRSARPGPDSGETGKFIAWGPGPRASQSLMLAVRARALIDGRLAPSVDDVLDLAEPILKHRMALTFQARAEGRTIPDVIRQLKTRIGLEHHHHHH | soluble |
| MLFDLGYVDLQDRSNAEILTHLITKKAILLLGDKQNPADLLAIQDEVQERYLVNFSLFQSMPDFWGLEQNFPIMPLDRLDEEPTRSASIWDITCDSDGEISYSKDKPLFLHDVDVEKENYFLGFFLVGAYQEVLGMKHNLFTHPTEAIISINEKGYEVEGIIEAQSILDTLEDLDYDIHAILEHHHHHH | not soluble |

Source: the DeepSol protein solubility set
